Legend:
CMV virions = molecular target: T1, CMV virions; test: virion ELISA
T1 construct: also called whole virions

[1] = molecular target: gB on infectious CMV (neutralization assays) (human cytomegalovirus); test: cell-based or functional assay

B1: 3-25 (antibody, V domains shown)
VH: QVQLVESGGGVVQPGRSLRLSCAASGFTFSNHGLHWVRQPPGKGLEWVAVVSKDGTNEHYADSVRGRFTISRDNSKNTLYLLMKSLRLEDTAVYYCAREGYCGDDRCYSGQPDYWGQGILVTVSS
VL: EIVLTQFPATLSLSPGERATLSCRASQSVGRYLAWYQQKPGQAPRLLIYDSSNRATGVPARFSGSGSGTDFTLSISSLEPEDFAVYFCQQRSHWPPLTFGGGTKVEIK
notes: also called antibody 3-25; clone 3-25
EC50 (CMV virions): 0.04 µg/mL | EC50 Neutralizing [1]: 0.3 µg/mL

Reference: patent US11230591 (Merck Sharp & Dohme, dated 2022)
